The supplement of paper PMC7877785
± gives the uncertainty stated by the source.

Assay: self-splicing fitness, log relative to wild type (ln ratio); higher = more splicing; Tetrahymena group I intron in knt gene, E. coli kanamycin selection, DiMSum; sequences stand for … in CUCUCU…GGAGGGAAAAGUUAUCAGGCAUGCACCUGGUAGCUAGUCUUUAAACCAAUAGAUUGCAUCGGUUUAAAAGGCAAGACCGUCAAAUUGCGGGAAAGGGGUCAACAGCCGUUCAGUACCAAGUCUCAGGGGAAACUUUGAGAUGGCCUUGCAAAGGGUAUGGUAAUAAGCUGACGGACAUGGUCCUAACCACGCAGCCAAGUCCUAAGUCAACAGAUCUUCUGUUGAUAUGGAUGCAGUUCACAGACUAAAUGUCGGUCGGGGAAGAUGUAUUCUUCUCAUAAGAUAUAGUCGGACCUCUCCUUAAUGGGAGCUAGCGGAUGAAGUGAUGCAACACUGGAGCCGCUGGGAACUAAUUUGUAUGCGAAAGUAUAUUGAUUAGUUUUGGAGUACUCGUGGUCG
Method in brief: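 Colonies from six replicate transformations of E. coli BL21(DE3) were pooled and amplicon-sequenced on an Illumina HiSeq 2500. The library placed an intron with all eight P1ex-region nucleotides randomised inside the knt kanamycin-resistance gene on pET-22b(+), and cells grew overnight at 37°C or 30°C on LB agar with or without 25 μg/mL kanamycin (plus 100 μg/mL carbenicillin, 50 μM IPTG, 0.2% rhamnose). Fitness is the DiMSum error-weighted combination of wild-type-normalised replicate fold changes, kanamycin versus none.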

Row | Sequence | self-splicing fitness (ln) (30 °C) | self-splicing fitness (ln) (37 °C)
1 | CGGAAGCAAUAUUACGGCAG | -0.0767 ± 0.11 | 0.445 ± 0.13
2 | CGGAAGCAAUAUUACGGCGG | -0.184 ± 0.1 | 0.177 ± 0.13
3 | CGGAAGCAAUAUUACGUAUG | -1.49 ± 0.069 | -0.904 ± 0.083
4 | CGGAAGCAAUAUUACGUGAC | -1.6 ± 0.16 | -2.12 ± 0.35
5 | CGGAAGCAAUAUUACGUGCA | -3.23 ± 0.23 | -0.628 ± 0.13
6 | CGGAAGCAAUAUUACGUGCG | -1.64 ± 0.095 | -1.05 ± 0.14
7 | CGGAAGCAAUAUUACGUUCC | -2.32 ± 0.48 | 
8 | CGGAAGCAAUAUUACGUUCU | -1.91 ± 0.14 | -0.77 ± 0.14
9 | CGGAAGCAAUAUUACGUUGU | -3.82 ± 0.22 | -2.88 ± 0.24
10 | CGGAAGCAAUAUUACGUUUA | -3.07 ± 0.24 | -2.06 ± 0.17
11 | CGGCAGCAAUAUUACGAAAA | -2.23 ± 0.26 | -2.21 ± 0.37
12 | CGGCAGCAAUAUUACGAACG | -1.11 ± 0.11 | 0.693 ± 0.15
13 | CGGCAGCAAUAUUACGACUC | -0.739 ± 0.097 | -0.759 ± 0.1
14 | CGGCAGCAAUAUUACGAUAC | -3.21 ± 0.26 | -2.89 ± 0.31
15 | CGGCAGCAAUAUUACGAUAG | -0.0988 ± 0.079 | -0.126 ± 0.086
16 | CGGCAGCAAUAUUACGAUGA | -1.21 ± 0.095 | -1.21 ± 0.12
17 | CGGCAGCAAUAUUACGAUUC | -2.62 ± 0.17 | -2.3 ± 0.19
18 | CGGCAGCAAUAUUACGCAAC |  | -2.1 ± 0.26
19 | CGGCAGCAAUAUUACGCAAU | -3.47 ± 0.2 | -1.77 ± 0.19
20 | CGGCAGCAAUAUUACGCCAA | -1.61 ± 0.15 | -0.921 ± 0.13
21 | CGGCAGCAAUAUUACGCCCG | -2.32 ± 0.47 | 

Row | Sequence | self-splicing fitness (ln) (30 °C) | self-splicing fitness (ln) (37 °C)
22 | CGGCAGCAAUAUUACGCCUG | -0.88 ± 0.24 | -1.89 ± 0.23
23 | CGGCAGCAAUAUUACGCGAG | -2.86 ± 0.14 | -2.37 ± 0.14
24 | CGGCAGCAAUAUUACGCGGA |  | -2.7 ± 0.3
25 | CGGCAGCAAUAUUACGCGUU | -4.11 ± 0.2 | -2.75 ± 0.18
26 | CGGCAGCAAUAUUACGCUAA | -1.59 ± 0.1 | -2.03 ± 0.15
27 | CGGCAGCAAUAUUACGGAGG | -1.2 ± 0.086 | -0.0971 ± 0.11
28 | CGGCAGCAAUAUUACGGAGU | -3.46 ± 0.27 | -2.33 ± 0.2
29 | CGGCAGCAAUAUUACGGAUA | -3.38 ± 0.22 | -2.39 ± 0.18
30 | CGGCAGCAAUAUUACGGCUA | -0.121 ± 0.07 | 0.407 ± 0.096
31 | CGGCAGCAAUAUUACGGCUG | -3.69 ± 0.47 | -2.23 ± 0.27
32 | CGGCAGCAAUAUUACGGGCA | -2.31 ± 0.26 | -0.644 ± 0.13
33 | CGGCAGCAAUAUUACGUGAG | -0.694 ± 0.041 | -0.055 ± 0.069
34 | CGGCAGCAAUAUUACGUGGA | -2.73 ± 0.26 | -1.72 ± 0.27
35 | CGGCAGCAAUAUUACGUUUG | -1.58 ± 0.069 | -0.243 ± 0.079
36 | CGGGAGCAAUAUUACGAGAG | -3.34 ± 0.26 | -3.18 ± 0.32
37 | CGGGAGCAAUAUUACGAGUC |  | -1.07 ± 0.26
38 | CGGGAGCAAUAUUACGCGGG | -4.1 ± 0.37 | -2.83 ± 0.3
39 | CGGGAGCAAUAUUACGGAAA | -3.53 ± 0.29 | 
40 | CGGGAGCAAUAUUACGGGAU | -3.37 ± 0.34 | 
41 | CGGGAGCAAUAUUACGGUCC |  | -2.32 ± 0.24
42 | CGGGAGCAAUAUUACGGUUC | -3.39 ± 0.25 | -1.95 ± 0.35

Row | Sequence | self-splicing fitness (ln) (30 °C) | self-splicing fitness (ln) (37 °C)
43 | CGGGAGCAAUAUUACGUAAU |  | -1.95 ± 0.28
44 | CGGGAGCAAUAUUACGUACA | -3.72 ± 0.35 | 
45 | CGGGAGCAAUAUUACGUAUU | -4.48 ± 0.41 | -2.31 ± 0.37
46 | CGGGAGCAAUAUUACGUGAG | -1.03 ± 0.11 | -0.865 ± 0.11
47 | CGGGAGCAAUAUUACGUGCU | -3.7 ± 0.21 | -2.87 ± 0.22
48 | CGGGAGCAAUAUUACGUGUA | -4.05 ± 0.39 | -1.47 ± 0.22
49 | CGGGAGCAAUAUUACGUUUA | -3.47 ± 0.31 | -1.8 ± 0.28
50 | CGGUAGCAAUAUUACGAAAA | -2.62 ± 0.35 | -2.77 ± 0.39
51 | CGGUAGCAAUAUUACGAAGG | -0.178 ± 0.15 | 0.565 ± 0.16
52 | CGGUAGCAAUAUUACGAGAA | -2.77 ± 0.32 | -1.85 ± 0.33
53 | CGGUAGCAAUAUUACGAGGG | -3.72 ± 0.36 | -2.96 ± 0.25
54 | CGGUAGCAAUAUUACGCACA | -0.755 ± 0.26 | -0.0778 ± 0.19
55 | CGGUAGCAAUAUUACGCCAG | -0.874 ± 0.092 | -1.03 ± 0.14
56 | CGGUAGCAAUAUUACGCCCC | -1.29 ± 0.24 | -0.667 ± 0.29
57 | CGGUAGCAAUAUUACGCCGG | -1.45 ± 0.078 | -0.573 ± 0.12
58 | CGGUAGCAAUAUUACGCGUC |  | -1.81 ± 0.39
59 | CGGUAGCAAUAUUACGGAAG | -0.936 ± 0.13 | -0.67 ± 0.14
60 | CGGUAGCAAUAUUACGGAUG | -0.393 ± 0.063 | 0.221 ± 0.096
61 | CGGUAGCAAUAUUACGGCUG | -4.13 ± 0.25 | -1.05 ± 0.16
62 | CGGUAGCAAUAUUACGGGGC |  | -2.39 ± 0.34
63 | CGGUAGCAAUAUUACGGUAG | -0.557 ± 0.071 | -0.0774 ± 0.089

Row | Sequence | self-splicing fitness (ln) (30 °C) | self-splicing fitness (ln) (37 °C)
64 | CGGUAGCAAUAUUACGUCCU | -0.294 ± 0.063 | 0.121 ± 0.08
65 | CGGUAGCAAUAUUACGUUAU | -2.66 ± 0.25 | 
66 | CGUAAGCAAUAUUACGAAGG | -1.78 ± 0.12 | -1.16 ± 0.2
67 | CGUAAGCAAUAUUACGACAC | -2.84 ± 0.14 | -2.55 ± 0.16
68 | CGUAAGCAAUAUUACGACUU | -3.09 ± 0.23 | -1.35 ± 0.22
69 | CGUAAGCAAUAUUACGAGAU | -4.04 ± 0.47 | -2.55 ± 0.41
70 | CGUAAGCAAUAUUACGAUAA | -2.66 ± 0.23 | -1.86 ± 0.24
71 | CGUAAGCAAUAUUACGAUGC |  | -2.04 ± 0.26
72 | CGUAAGCAAUAUUACGCAUC |  | -2.03 ± 0.26
73 | CGUAAGCAAUAUUACGCCAC | -2.55 ± 0.42 | -0.936 ± 0.3
74 | CGUAAGCAAUAUUACGCCGG | -1.38 ± 0.11 | -1.04 ± 0.14
75 | CGUAAGCAAUAUUACGCCUU | -2.51 ± 0.23 | -2.05 ± 0.31
76 | CGUAAGCAAUAUUACGCUCU | -0.698 ± 0.17 | -1.35 ± 0.2
77 | CGUAAGCAAUAUUACGCUGA | -3.48 ± 0.42 | -1.42 ± 0.18
78 | CGUAAGCAAUAUUACGGAAG | -2.64 ± 0.19 | -1.41 ± 0.17
79 | CGUAAGCAAUAUUACGGAGC | -4.17 ± 0.39 | 
80 | CGUAAGCAAUAUUACGGCAG | -0.537 ± 0.091 | -0.781 ± 0.095
81 | CGUAAGCAAUAUUACGGCGA | -2.31 ± 0.2 | -2.02 ± 0.25
